According to patent publication US20160355605A1 (published 2016):

B1: murine DS6 anti-CA6 monoclonal antibody (antibody, V domains shown)
VH: QAYLQQSGAELVRSGASVKMSCKASGYTFTSYNMHWVKQTPGQGLEWIGYIYPGNGATNYNQKFKGKATLTADPSSSTAYMQISSLTSEDSAVYFCARGDSVPFAYWGQGTLVTVSA
VL: QIVLTQSPAIMSASPGEKVTITCSAHSSVSFMHWFQQKPGTSPKLWIYSTSSLASGVPARFGGSGSGTSYSLTISRMEAEDAATYYCQQRSSFPLTFGAGTKLELKR
notes: Murine monoclonal IgG purified from the hybridoma (ATCC PTA-4449); also called muDS6; DS6 antibody
B2: chimeric DS6 antibody (antibody, V domains shown)
VH: QAYLQQSGAELVRSGASVKMSCKASGYTFTSYNMHWVKQTPGQGLEWIGYIYPGNGATNYNQKFKGKATLTADPSSSTAYMQISSLTSEDSAVYFCARGDSVPFAYWGQGTLVTVSA
VL: QIVLTQSPAIMSASPGEKVTITCSAHSSVSFMHWFQQKPGTSPKLWIYSTSSLASGVPARFGGSGSGTSYSLTISRMEAEDAATYYCQQRSSFPLTFGAGTKLELKR
notes: also called chDS6
B3: humanized DS6 antibody version 1.21 (antibody, V domains shown)
VH: QAQLVQSGAEVVKPGASVKMSCKASGYTFTSYNMHWVKQTPGQGLEWIGYIYPGNGATNYNQKFQGKATLTADPSSSTAYMQISSLTSEDSAVYFCARGDSVPFAYWGQGTLVTVSA
VL: EIVLTQSPATMSASPGERVTITCSAHSSVSFMHWFQQKPGTSPKLWIYSTSSLASGVPARFGGSGSGTSYSLTISSMEAEDAATYYCQQRSSFPLTFGAGTKLELKR
notes: also called huDS6v1.21; huDS6 v1.21
B4: humanized DS6 antibody version 1.01 (antibody, V domains shown)
VH: QAQLVQSGAEVVKPGASVKMSCKASGYTFTSYNMHWVKQTPGQGLEWIGYIYPGNGATNYNQKFQGKATLTADTSSSTAYMQISSLTSEDSAVYFCARGDSVPFAYWGQGTLVTVSA
VL: EIVLTQSPATMSASPGERVTITCSAHSSVSFMHWFQQKPGTSPKLWIYSTSSLASGVPARFGGSGSGTSYSLTISSMEAEDAATYYCQQRSSFPLTFGAGTKLELKR
notes: also called huDS6v1.01; huDS6 v1.01
B5: huDS6v1.01-SPDB-DM4 conjugate (antibody, human IgG1, V domains shown)
VH: QAQLVQSGAEVVKPGASVKMSCKASGYTFTSYNMHWVKQTPGQGLEWIGYIYPGNGATNYNQKFQGKATLTADTSSSTAYMQISSLTSEDSAVYFCARGDSVPFAYWGQGTLVTVSA
VL: EIVLTQSPATMSASPGERVTITCSAHSSVSFMHWFQQKPGTSPKLWIYSTSSLASGVPARFGGSGSGTSYSLTISSMEAEDAATYYCQQRSSFPLTFGAGTKLELKR
modifications: DM4 maytansinoid via SPDB disulfide linker, 3.2 DM4 per antibody; sites not stated

Columns and labels:
[1] = biological target: T1, Muc1 mucin bearing the CA6 sialoglycotope (DS6 antigen), as expressed by CA6-positive human tumour cell lines (human, UniProt P15941 24-1255, CA6 epitope: sialic acid-dependent glycotope on sialylated O-linked carbohydrate chains; sites not stated); test: flow cytometry competition; competitor 2 nM biotin-muDS6, streptavidin-DTAF (called apparent EC50 in paragraph 357)
T1 construct: whole, on cells; Flow cytometry used whole cells; dot blots, immunoprecipitation and western blots used cell lysates; also called CA6 antigen; >250 kDa band

[2] = biological target: T1, Muc1 mucin bearing the CA6 …; test: flow cytometry, direct binding to KB cells; apparent Kd
Experimental: In the first set of experiments direct binding to a CA6-expressing cell line, KB, was measured.

[3] = biological target: T1, Muc1 mucin bearing the CA6 …; test: cell-based or functional assay

Binder	IC50 [1]	Kd [2]	in vitro cytotoxicity (MTT), WISH cells, IC50 [3]
B1	1.9 nM	–	–
B2	1.7 nM	–	–
B3	1.9 nM	0.85 nM	–
B4	3 nM	0.82 nM	–
B5	–	–	0.44 nM
